Experimental data: US20200308299A1, “ANTI-GPC-1 ANTIBODY” (National University Corporation Kochi University, priority 2017, published 2020)
Where a chain is given by its changes, count along the chain named.

B1: clone 01a016: anti-human Glypican-1 antibody, heavy chain SEQ ID NO: 134, light chain SEQ ID NO: 136 (antibody)
heavy: MKHLWFFLLLVAAPRWVLSQVHLQQSGPELVKPGASVKISCKASGYTFTDYYINWVKQKPGQGLEWIGYIDPYNDGSKYNEKFKGKATLTSDKSSSTAYMELSSLTSEDSAVYYCARTPYYSFYSYGFYFDYWGQGTTLTVSSAKTTAPSVYPLAPVCGDTTGSSVTLGCLVKGYFPEPVTLTWNSGSLSSGVHTFPAVLQSDLYTLSSSVTVTSSTWPSQSITCNVAHPASSTKVDKKIEPRGPTIKPCPPCKCPAPNLLGGPSVFIFPPKIKDVLMISLSPIVTCVVVDVSEDDPDVQISWFVNNVEVHTAQTQTHREDYNSTLRVVSALPIQHQDWMSGKEFKCKVNNKDLPAPIERTISKPKGSVRAPQVYVLPPPEEEMTKKQVTLTCMVTDFMPEDIYVEWTNNGKTELNYKNTEPVLDSDGSYFMYSKLRVEKKNWVERNSYSCSVVHEGLHNHHTTKSFSRTPGK
light: MRLLAQLLGLLMLWVPGSSGDIVLTQSPASLAVSLGQRATISCRASKSVSTSSYSYMHWYQQKPGQPPKLLIKYASYLESGVPARFSGSGSGTDFTLNIHPVEEEDAATYYCQHSREFPLTFGAGTKLELKRADAAPTVSIFPPSSEQLTSGGASVVCFLNNFYPKDINVKWKIDGSERQNGVLNSWTDQDSKDSTYSMSSTLTLTKDEYERHNSYTCEATHKTSTSPIVKSFNRNEC
B2: clone 01a009: anti-human Glypican-1 antibody, heavy chain SEQ ID NO: 150, light chain SEQ ID NO: 152 (antibody)
heavy: MKHLWFFLLLVAAPRWVLSEVQLQQSGPELVKPGASVEISCKASGYSFTGYFMNWVKQSQGKSLEWIGRINPDNGDIFYNQKFKGKATLTVDKSSSTAHMELRSLTSEDSAVYYCARSWNWYFDVWGAGTTVTVSSAKTTAPSVYPLAPVCGDTTGSSVTLGCLVKGYFPEPVTLTWNSGSLSSGVHTFPAVLQSDLYTLSSSVTVTSSTWPSQSITCNVAHPASSTKVDKKIEPRGPTIKPCPPCKCPAPNLLGGPSVFIFPPKIKDVLMISLSPIVTCVVVDVSEDDPDVQISWFVNNVEVHTAQTQTHREDYNSTLRVVSALPIQHQDWMSGKEFKCKVNNKDLPAPIERTISKPKGSVRAPQVYVLPPPEEEMTKKQVTLTCMVTDFMPEDIYVEWTNNGKTELNYKNTEPVLDSDGSYFMYSKLRVEKKNWVERNSYSCSVVHEGLHNHHTTKSFSRTPGK
light: MRLLAQLLGLLMLWVPGSSGDIQMTQSPASLSASVGETVTITCRASENIYSYLAWYQQKQGKSPQLLVYNAKTLAEGVPSRFSGSGSGTQFSLKINSLQPEDFGSYYCQHHYGTPYTFGSGTKLEIKRADAAPTVSIFPPSSEQLTSGGASVVCFLNNFYPKDINVKWKIDGSERQNGVLNSWTDQDSKDSTYSMSSTLTLTKDEYERHNSYTCEATHKTSTSPIVKSFNRNEC
B3: clone 01a026: anti-human Glypican-1 antibody, heavy chain SEQ ID NO: 146, light chain SEQ ID NO: 148 (antibody)
heavy: MKHLWFFLLLVAAPRWVLSQVHLQQSGAELVRPGTSVKMSCKAAGYTFTNYWIGWVKQRPGHGLEWIGDIYPGGGYTHYNEKFKGKATLTADTSSSTAYMQLSSLTSEDSAIYYCARERVYYDGSRFFDVWGAGTTVTVSSAKTTAPSVYPLAPVCGDTTGSSVTLGCLVKGYFPEPVTLTWNSGSLSSGVHTFPAVLQSDLYTLSSSVTVTSSTWPSQSITCNVAHPASSTKVDKKIEPRGPTIKPCPPCKCPAPNLLGGPSVFIFPPKIKDVLMISLSPIVTCVVVDVSEDDPDVQISWFVNNVEVHTAQTQTHREDYNSTLRVVSALPIQHQDWMSGKEFKCKVNNKDLPAPIERTISKPKGSVRAPQVYVLPPPEEEMTKKQVTLTCMVTDFMPEDIYVEWTNNGKTELNYKNTEPVLDSDGSYFMYSKLRVEKKNWVERNSYSCSVVHEGLHNHHTTKSFSRTPGK
light: MRLLAQLLGLLMLWVPGSSGDIVMSQSPKFLPVSAGDRVTMTCKASQSVGNNVAWYQQKPGQSPKLLIYYASNRYTGVPDRFTGSGSGTDFTFTISSVQVEDLAVYFCQQHYSSPWTFGGGTKLEIKRADAAPTVSIFPPSSEQLTSGGASVVCFLNNFYPKDINVKWKIDGSERQNGVLNSWTDQDSKDSTYSMSSTLTLTKDEYERHNSYTCEATHKTSTSPIVKSFNRNEC
B4: clone 01a030: anti-human Glypican-1 antibody, heavy chain SEQ ID NO: 154, light chain SEQ ID NO: 156 (antibody)
heavy: B3 heavy with H22Q, F127Y
light: B3 light with V23K, S25T
B5: clone 01a002: anti-human Glypican-1 antibody, heavy chain SEQ ID NO: 126, light chain SEQ ID NO: 128 (antibody)
heavy: MKHLWFFLLLVAAPRWVLSEVQLQQSGPELVKPGASVKISCKSSGYSFTRYYMHWVKHSPEKSLEWIGEINPSTGDTTYNQKFKAKATLTVDKSSSTAYMQLKSLTSEDSAVYYCAREKRDDGVLAYWGQGTLVTVSSAKTTAPSVYPLAPVCGDTTGSSVTLGCLVKGYFPEPVTLTWNSGSLSSGVHTFPAVLQSDLYTLSSSVTVTSSTWPSQSITCNVAHPASSTKVDKKIEPRGPTIKPCPPCKCPAPNLLGGPSVFIFPPKIKDVLMISLSPIVTCVVVDVSEDDPDVQISWFVNNVEVHTAQTQTHREDYNSTLRVVSALPIQHQDWMSGKEFKCKVNNKDLPAPIERTISKPKGSVRAPQVYVLPPPEEEMTKKQVTLTCMVTDFMPEDIYVEWTNNGKTELNYKNTEPVLDSDGSYFMYSKLRVEKKNWVERNSYSCSVVHEGLHNHHTTKSFSRTPGK
light: B3 light with V23Q, S25T, W116L, G120A, I126L
B6: clone 4: anti-Glypican-1 antibody, heavy chain SEQ ID NO: 198, light chain SEQ ID NO: 200; sequence from WO 2015/098112 (antibody)
heavy: AVTLDESGGGLQTPGRALSLVCKASGFTFSRYAMYWVRQAPGKGLEFVAGIGNTGRYTGYGSAVKGRATISRDSGQSTVRLQLNNLRAEDTGNYYCAKSVSPYCCDAADIDAWGHGTEVIVSS
light: ASTQPSSVSANPGETVKITCSGGSSGYAYGWYQQKSPGSAPVTLLYSNNNRPSDIPSRFSGSKSGSTATLTITGVQAEDEAVYFCGSVDSSSYAGIFGAGTTLTVL

Each molecule was assayed on TE14 cells (assay: ADC assay combining anti-GPC-1 antibody and MMAF binding secondary antibody, TE14 cells). Settings: primary antibody plus MMAF secondary antibody.
Format: cell-based
Protocol: FIG. 1 depicts a schematic diagram of an ADC used in an assay. This Example used a secondary antibody (MORADEC) to the anti-GPC1 antibody made in Example 1, to which an anticancer agent (MMAF) was bound via a linker.
2000 TE14 cells were added to a 96-well plate at 80 μl. The cells were cultured overnight at 37° C. in a 5% CO2 incubator. The next day, 10 μl of an anticancer agent bound secondary antibody and 10 μl of a primary antibody concentrated 10-fold relative to the final concentration was added to each well, so that the total amount was 100 μl. The cells were cultured for 6 days at 37° C. in a 5% CO2 incubator. The cell viability was measured by using a CellTiter-Glo Luminescent Cell Viability Assay reagent to detect the amount of ATP. RPMI1640+10% FBS+1% PS was used as the medium. The final concentrations of the primary antibody were 0, 0.004, 0.0156, 0.0625, 0.25, and 1.0 nM. 2 μg/ml of Fab-aMFc-CL-MMAF (model number: AM202AF-50, Moradec) was used as the secondary antibody.

| EC50 values against TE14 cells | Molecule |
| --- | --- |
| excellent EC50 values | B1 |
| excellent EC50 values | B2 |
| excellent EC50 values | B3 |
| excellent EC50 values | B4 |
| excellent EC50 values | B5 |
| excellent EC50 values | B6 |

These molecules were tested on DU145 cells (assay: ADC assay combining anti-GPC-1 antibody and MMAF binding secondary antibody in DU145 cells). Settings: primary antibody plus MMAF secondary antibody 2 μg/ml, 3 days.
Format: cell-based
Protocol: 2000 DU145 cells were added to a 96-well plate at 80 μl. The cells were cultured overnight at 37° C. in a 5% CO2 incubator. The next day, 10 μl each of anticancer agent binding secondary antibody (2 μg/ml) and primary antibody concentrated 10-fold relative to the final concentration was added to each well, so that the total amount was 100 μl. The cells were cultured for 3 days at 37° C. in a 5% CO2 incubator. The cell viability was measured by using a CellTiter-Glo Luminescent Cell Viability Assay reagent to detect the amount of ATP. RPMI1640+10% FBS+1% PS was used as the medium. The final concentrations of the primary antibodies were […]. 2 μg/ml of Fab-aMFc-CL-MMAF (model number AM202AF-50, Moradec) was used as the secondary antibody. The EC50 value was analyzed with GraphPad Prism 6. The same experiment was conducted using 4000 MDA-MB231 cells as the control.

| Molecule | growth suppressing effect against DU145 cells |
| --- | --- |
| B5 | high growth suppressing effect |

Same assay, conditions: primary antibody plus MMAF secondary antibody, 3 days

| EC50 values against DU145 cells | Molecule |
| --- | --- |
| excellent EC50 values | B1 |
| excellent EC50 values | B2 |
| excellent EC50 values | B3 |
| excellent EC50 values | B4 |
| excellent EC50 values | B5 |
| excellent EC50 values | B6 |
